# From US20190077849A1
# Where two headings read alike, the source gives them in different places.
# How the values were obtained:
# Assay in all cases: cell-based or functional assay
# [1] = target: HIV-1 Env of YU2.DG.SG3 pseudovirus (clade B) (HIV-1) (UniProt P35961)
# [2] = target: HIV-1 Env of CNE31.SG3 pseudovirus (clade C) (HIV-1)
# [3] = target: HIV-1 Env of ZM106.9.SG3 pseudovirus (clade C) (HIV-1)
# [4] = target: HIV-1 Env of 6095.V1.C10.SG3 pseudovirus (clade ACD) (HIV-1)
# [5] = target: HIV-1 Env of TH966.8.SG3 pseudovirus (clade AE) (HIV-1)
# [6] = target: HIV-1 Env of KER2008.12.SG3 pseudovirus (clade A) (HIV-1)
# [7] = target: HIV-1 Env of ZM215.8.SG3 pseudovirus (clade C) (HIV-1)
# [8] = target: HIV-1 Env of 6101.10.SG3 pseudovirus (clade B) (HIV-1)
# [9] = target: HIV-1 Env of PVO.04.SG3 pseudovirus (clade B) (HIV-1)
# [10] = target: HIV-1 Env of YU2.DG.SG3 pseudovirus (clade B) (HIV-1) (UniProt P35961); remark: listed apart in the source
# [11] = target: HIV-1 Env of CNE31.SG3 pseudovirus (clade C) (HIV-1); remark: listed apart in the source
# [12] = target: HIV-1 Env of ZM106.9.SG3 pseudovirus (clade C) (HIV-1); remark: listed apart in the source
# [13] = target: HIV-1 Env of 6095.V1.C10.SG3 pseudovirus (clade ACD) (HIV-1); remark: listed apart in the source
# [14] = target: HIV-1 Env of TH966.8.SG3 pseudovirus (clade AE) (HIV-1); remark: listed apart in the source
# [15] = target: HIV-1 Env of KER2008.12.SG3 pseudovirus (clade A) (HIV-1); remark: listed apart in the source
# [16] = target: HIV-1 Env of ZM215.8.SG3 pseudovirus (clade C) (HIV-1); remark: listed apart in the source
# [17] = target: HIV-1 Env of 6101.10.SG3 pseudovirus (clade B) (HIV-1); remark: listed apart in the source
# [18] = target: HIV-1 Env of PVO.04.SG3 pseudovirus (clade B) (HIV-1); remark: listed apart in the source
# Sequence of 10E8v4 S100cL (antibody) (VH): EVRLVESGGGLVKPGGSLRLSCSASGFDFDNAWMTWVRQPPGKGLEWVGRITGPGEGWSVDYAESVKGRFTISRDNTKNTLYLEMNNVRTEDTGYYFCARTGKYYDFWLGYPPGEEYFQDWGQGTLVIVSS
# Sequence of 10E8v4 S100cL (antibody) (VL): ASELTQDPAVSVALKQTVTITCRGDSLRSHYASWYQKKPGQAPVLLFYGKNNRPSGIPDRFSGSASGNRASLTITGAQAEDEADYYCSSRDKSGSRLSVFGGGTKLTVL
# Sequence of 10E8v4 S100cY (antibody) (VH): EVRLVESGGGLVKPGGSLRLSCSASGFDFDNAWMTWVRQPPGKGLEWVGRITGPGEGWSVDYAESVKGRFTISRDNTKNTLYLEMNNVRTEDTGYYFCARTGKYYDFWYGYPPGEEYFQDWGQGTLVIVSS
# Sequence of 10E8v4 S100cY (antibody) (VL): as the sequence (VL) above
Substance,"IC50, pseudovirus neutralization [1] [µg/mL]","IC50, pseudovirus neutralization [2] [µg/mL]","IC50, pseudovirus neutralization [3] [µg/mL]","IC50, pseudovirus neutralization [4] [µg/mL]","IC50, pseudovirus neutralization [5] [µg/mL]","IC50, pseudovirus neutralization [6] [µg/mL]","IC50, pseudovirus neutralization [7] [µg/mL]","IC50, pseudovirus neutralization [8] [µg/mL]","IC50, pseudovirus neutralization [9] [µg/mL]",further results
10E8v4 VL Y32A (antibody),> 50,> 50,> 50,0.409,3.53,> 50,11.7,> 50,> 50,–
10E8v4 VL Y32P (antibody),> 50,> 50,> 50,3.2,> 50,> 50,> 50,> 50,> 50,–
10E8v4 VL Y32F (antibody),2,3.2,> 50,0.017,0.031,> 50,0.102,0.08,2.25,–
10E8v4 VL Y32V (antibody),> 50,> 50,> 50,0.558,4.96,> 50,28.2,> 50,> 50,–
10E8v4 S100cY (antibody),–,–,–,–,–,–,–,–,–,"IC50, pseudovirus neutralization [10]: 0.376 µg/mL; IC80, pseudovirus neutralization [10]: 2.25 µg/mL; IC50, pseudovirus neutralization [11]: 0.368 µg/mL; IC80, pseudovirus neutralization [11]: 1.39 µg/mL; IC50, pseudovirus neutralization [12]: > 50 µg/mL; IC80, pseudovirus neutralization [12]: > 50 µg/mL; IC50, pseudovirus neutralization [13]: 0.001 µg/mL; IC80, pseudovirus neutralization [13]: 0.006 µg/mL; IC50, pseudovirus neutralization [14]: 0.011 µg/mL; IC80, pseudovirus neutralization [14]: 0.075 µg/mL; IC50, pseudovirus neutralization [15]: > 50 µg/mL; IC80, pseudovirus neutralization [15]: > 50 µg/mL; IC50, pseudovirus neutralization [16]: 0.028 µg/mL; IC80, pseudovirus neutralization [16]: 0.129 µg/mL; IC50, pseudovirus neutralization [17]: 0.009 µg/mL; IC80, pseudovirus neutralization [17]: 0.063 µg/mL; IC50, pseudovirus neutralization [18]: 0.412 µg/mL; IC80, pseudovirus neutralization [18]: 3.44 µg/mL"
10E8v4 VL Y32D (antibody),> 50,> 50,> 50,1.55,> 50,> 50,> 50,> 50,> 50,–
10E8v4 S100cL (antibody),–,–,–,–,–,–,–,–,–,"IC50, pseudovirus neutralization [10]: 0.333 µg/mL; IC80, pseudovirus neutralization [10]: 1.75 µg/mL; IC50, pseudovirus neutralization [11]: 0.354 µg/mL; IC80, pseudovirus neutralization [11]: 1.01 µg/mL; IC50, pseudovirus neutralization [12]: > 50 µg/mL; IC80, pseudovirus neutralization [12]: > 50 µg/mL; IC50, pseudovirus neutralization [13]: 0.001 µg/mL; IC80, pseudovirus neutralization [13]: 0.002 µg/mL; IC50, pseudovirus neutralization [14]: 0.011 µg/mL; IC80, pseudovirus neutralization [14]: 0.079 µg/mL; IC50, pseudovirus neutralization [15]: > 50 µg/mL; IC80, pseudovirus neutralization [15]: > 50 µg/mL; IC50, pseudovirus neutralization [16]: 0.015 µg/mL; IC80, pseudovirus neutralization [16]: 0.095 µg/mL; IC50, pseudovirus neutralization [17]: 0.007 µg/mL; IC80, pseudovirus neutralization [17]: 0.049 µg/mL; IC50, pseudovirus neutralization [18]: 0.507 µg/mL; IC80, pseudovirus neutralization [18]: 2.21 µg/mL"
10E8v4 VL Y32H (antibody),8.76,29.9,> 50,0.032,0.788,> 50,1.39,7.4,> 50,–
10E8v4 VL Y32Q (antibody),> 50,> 50,> 50,0.281,11.5,> 50,> 50,> 50,> 50,–
10E8v4 VL Y32E (antibody),> 50,> 50,> 50,0.215,19,> 50,> 50,> 50,> 50,–
